Ends that are not written are not given here. * marks the point of attachment. Palmitoyl = CCCCCCCCCCCCCCCC(=O)*
T1: GLP-1 receptor present in the plasma membranes isolated from RINm5F cells (UniProt P32301 22-463, limits assumed)
T1 sequence (looked up): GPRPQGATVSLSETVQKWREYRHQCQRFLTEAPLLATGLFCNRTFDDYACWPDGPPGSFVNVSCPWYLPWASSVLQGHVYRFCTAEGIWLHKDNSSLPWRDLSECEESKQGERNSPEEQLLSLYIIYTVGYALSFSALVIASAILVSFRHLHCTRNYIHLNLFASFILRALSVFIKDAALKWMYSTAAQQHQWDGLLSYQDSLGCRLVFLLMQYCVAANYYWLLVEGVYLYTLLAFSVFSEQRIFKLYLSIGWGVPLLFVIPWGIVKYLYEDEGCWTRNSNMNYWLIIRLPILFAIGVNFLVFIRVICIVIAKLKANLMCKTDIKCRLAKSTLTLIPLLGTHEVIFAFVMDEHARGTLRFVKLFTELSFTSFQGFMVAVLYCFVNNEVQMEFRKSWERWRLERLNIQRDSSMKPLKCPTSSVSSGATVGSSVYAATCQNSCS


The binders below were run against T1, GLP-1 receptor present in the plasma … (assay: cell-based or functional assay).

Which results are given for HSQGTFTSDYAKYLDARRAKEFIAWLVKGRG [G51]?
% GLP1 max, cAMP SPA in RINm5F cells: 91.2%; Relative Potency (%), cAMP SPA in RINm5F cells: 58.1%

With HSQGTFTSDYARYLDARRAREFIKWLVRGRG [G83] as the binder, how does the “% GLP1 max, cAMP SPA in RINm5F cells” value read?
Its value is 89.4%.

What about the “Relative Potency (%), cAMP SPA in RINm5F cells” value (“Relative Potency (%), cAMP SPA” for short) of the same binder?
Its value is 29.9%.

What does the source list for HSQGTFTSDYAKYLDARRACEFIAWLVKGRG [G71]?
% GLP1 max, cAMP SPA in RINm5F cells: 93.3%; Relative Potency (%), cAMP SPA in RINm5F cells: 4.3%

Which results are given for HSQGTFTSDYAKYLDARRAKEFIAWLVKCRG [G75]?
% GLP1 max, cAMP SPA in RINm5F cells: 86.1%; Relative Potency (%), cAMP SPA in RINm5F cells: 6.6%

HSQGTFTSDYARYLDARRAREFIK(Palmitoyl)WLVRGRG [G90] was tested. Which “% GLP1 max, cAMP SPA in RINm5F cells” value did it give?
The value was 83.5%.

And the “Relative Potency (%), cAMP SPA” value?
The value was 0.8%.

With HSQGTFTSDYAKYLDARRAKEFIAWLVKGRC(PEG22kD) [G277] as the binder, how does the “% GLP1 max, cAMP SPA in RINm5F cells” value read?
Its value is 93.7%.

What about the “Relative Potency (%), cAMP SPA” value of the same binder?
Its value is 1.8%.

What does the source list for HSQGTFTSDYAKYLDARRAKEFIAWLVKGCG [G76]?
% GLP1 max, cAMP SPA in RINm5F cells: 85%; Relative Potency (%), cAMP SPA in RINm5F cells: 7.7%

Which results are given for HSQGTFTSDYARYLDARRAKEFIAWLVRGRG [G82]?
% GLP1 max, cAMP SPA in RINm5F cells: 97.1%; Relative Potency (%), cAMP SPA in RINm5F cells: 29.9%

HSQGTFTSDYAKYLDARRAKEFIAWLVKGRK(Palmitoyl) [G88] was tested. Which “% GLP1 max, cAMP SPA in RINm5F cells” value did it give?
The value was 118%.

And the “Relative Potency (%), cAMP SPA” value?
Its value is 2.3%.

With HSQGTFTSDYAKYLDAAKAKEFIAWLVKGRG [G60] as the binder, how does the “% GLP1 max, cAMP SPA in RINm5F cells” value read?
Its value is 95.7%.

And the “Relative Potency (%), cAMP SPA” value?
The value was 22.3%.

Which “% GLP1 max, cAMP SPA in RINm5F cells” value does the source give for HSQGTFTSDYARYLDARRAREFIKWLVRGRC(PEG43kD) [G4185] here?
The value was 98.3%.

And the “Relative Potency (%), cAMP SPA” value?
Its value is 0.7%.

HSQGTFTSDYARYLDARRAREFIAWLVKGRG [G84] was tested. Which “% GLP1 max, cAMP SPA in RINm5F cells” value did it give?
Its value is 114%.

What about the “Relative Potency (%), cAMP SPA” value of the same binder?
Its value is 61.8%.

With HSQGTFTSDYAKYLDARRAKEFIAWLVCGRG [G74] as the binder, how does the “% GLP1 max, cAMP SPA in RINm5F cells” value read?
The value was 88.7%.

What about the “Relative Potency (%), cAMP SPA” value of the same binder?
The value was 8.4%.

Each binder was assayed against T2, glucagon receptor present in the plasma membranes isolated from rat liver (rat, UniProt P30082 27-485) (assay: cell-based or functional assay).
T2 sequence (P30082 27-485): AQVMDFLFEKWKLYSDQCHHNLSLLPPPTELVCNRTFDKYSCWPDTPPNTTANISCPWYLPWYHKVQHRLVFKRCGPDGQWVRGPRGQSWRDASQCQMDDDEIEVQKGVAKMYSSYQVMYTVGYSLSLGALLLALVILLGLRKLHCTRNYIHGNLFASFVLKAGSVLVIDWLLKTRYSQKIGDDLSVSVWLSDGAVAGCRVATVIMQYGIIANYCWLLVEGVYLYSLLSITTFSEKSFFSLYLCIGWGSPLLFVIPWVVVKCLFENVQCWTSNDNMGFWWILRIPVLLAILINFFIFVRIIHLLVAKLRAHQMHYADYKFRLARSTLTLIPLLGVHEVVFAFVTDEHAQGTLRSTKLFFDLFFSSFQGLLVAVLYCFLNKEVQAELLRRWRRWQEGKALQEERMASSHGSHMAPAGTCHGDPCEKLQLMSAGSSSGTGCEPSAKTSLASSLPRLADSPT

With HSQGTFTSDYAKYLDARRAKEFIAWLVKGRG [G51] as the binder, how does the “% Inhib glucagon stimulated cAMP increase (10 uM peptide, rat hepatocytes)” value read?
Its value is 35.2%.

Which “% Inhib glucagon stimulated cAMP increase (10 uM peptide, rat hepatocytes)” value does the source give for HSQGTFTSDYARYLDARRAREFIKWLVRGRG [G83] here?
The value was 24.7%.

Which “% Inhib glucagon stimulated cAMP increase (10 uM peptide, rat hepatocytes)” value does the source give for HSQGTFTSDYAKYLDARRACEFIAWLVKGRG [G71] here?
Its value is 11.3%.

HSQGTFTSDYAKYLDARRAKEFIAWLVKCRG [G75] was tested. Which “% Inhib glucagon stimulated cAMP increase (10 uM peptide, rat hepatocytes)” value did it give?
The value was 17.1%.

Which “% Inhib glucagon stimulated cAMP increase (10 uM peptide, rat hepatocytes)” value does the source give for HSQGTFTSDYAKYLDARRAKEFIAWLVKGCG [G76] here?
The value was 23%.

For HSQGTFTSDYARYLDARRAKEFIAWLVRGRG [G82], which “% Inhib glucagon stimulated cAMP increase (10 uM peptide, rat hepatocytes)” value is on record?
Its value is 30.2%.

With HSQGTFTSDYAKYLDAAKAKEFIAWLVKGRG [G60] as the binder, how does the “% Inhib glucagon stimulated cAMP increase (10 uM peptide, rat hepatocytes)” value read?
Its value is 21.8%.

How did the “% Inhib glucagon stimulated cAMP increase (10 uM peptide, rat hepatocytes)” value turn out when HSQGTFTSDYARYLDARRAREFIAWLVKGRG [G84] was run?
The value was 25.2%.

With HSQGTFTSDYAKYLDARRAKEFIAWLVCGRG [G74] as the binder, how does the “% Inhib glucagon stimulated cAMP increase (10 uM peptide, rat hepatocytes)” value read?
The value was 23.7%.

The binders below were run against T1, GLP-1 receptor present in the plasma … (assay: 125I-GLP-1 displacement, RINm5F plasma membranes).
Procedure: (§1) Competitive binding of some polypeptides of the invention to RINm5F cell plasma membranes was measured as follows. Ninety-six-well GF/C filtration plates (Millipore, Bedford, Ma.) were blocked with 0.3% PEI for at least one hour and washed twice with binding buffer consisting of 20 mM Tris, 2 mM EDTA, pH 7.5, 1 mg/ml BSA, and 1 mg/ml bacitracin. […] The plates were dried, scintillant was added to each well, and cpm per well determined using a Wallac Microbeta counter.

How did the IC50 turn out when HSQGTFTSDYAKYLDARRAKEFIAWLVKGRG [G51] was run?
Its IC50 is 8.2 nM.

Which IC50 does the source give for HSQGTFTSDYARYLDARRAREFIKWLVRGRG [G83] here?
The IC50 was 3.2 nM.

For HSQGTFTSDYAKYLDARRACEFIAWLVKGRG [G71], which IC50 is on record?
The IC50 was 5.8 nM.

Which IC50 does the source give for HSQGTFTSDYAKYLDARRAKEFIAWLVKCRG [G75] here?
Its IC50 is 7.7 nM.

HSQGTFTSDYARYLDARRAREFIK(Palmitoyl)WLVRGRG [G90] was tested. Which IC50 did it give?
The IC50 was 25.4 nM.

Which IC50 does the source give for HSQGTFTSDYAKYLDARRAKEFIAWLVKGCG [G76] here?
The IC50 was 10.2 nM.

HSQGTFTSDYARYLDARRAKEFIAWLVRGRG [G82] was tested. Which IC50 did it give?
The IC50 was 8.1 nM.

With HSQGTFTSDYAKYLDARRAKEFIAWLVKGRK(Palmitoyl) [G88] as the binder, how does the IC50 read?
The IC50 was 109 nM.

HSQGTFTSDYAKYLDAAKAKEFIAWLVKGRG [G60] was tested. Which IC50 did it give?
Its IC50 is 13.8 nM.

With HSQGTFTSDYARYLDARRAREFIKWLVRGRC(PEG43kD) [G4185] as the binder, how does the IC50 read?
The IC50 was 248 nM.

How did the IC50 turn out when HSQGTFTSDYARYLDARRAREFIAWLVKGRG [G84] was run?
Its IC50 is 1.4 nM.

With HSQGTFTSDYAKYLDARRAKEFIAWLVCGRG [G74] as the binder, how does the IC50 read?
The IC50 was 4.4 nM.

The binders below were run against T2, glucagon receptor present in the plasma … (assay: 125I-glucagon displacement, rat liver plasma membranes).
Procedure: as §1, with “rat liver” for “RINm5F cell”, “0.1%” for “0.3%”

With HSQGTFTSDYAKYLDARRAKEFIAWLVKGRG [G51] as the binder, how does the IC50 read?
Its IC50 is 154 nM.

How did the IC50 turn out when HSQGTFTSDYARYLDARRAREFIKWLVRGRG [G83] was run?
Its IC50 is 28.6 nM.

Which IC50 does the source give for HSQGTFTSDYAKYLDARRACEFIAWLVKGRG [G71] here?
Its IC50 is 25.6 nM.

HSQGTFTSDYAKYLDARRAKEFIAWLVKCRG [G75] was tested. Which IC50 did it give?
Its IC50 is 54 nM.

How did the IC50 turn out when HSQGTFTSDYARYLDARRAREFIK(Palmitoyl)WLVRGRG [G90] was run?
The IC50 was 726 nM.

HSQGTFTSDYAKYLDARRAKEFIAWLVKGRC(PEG22kD) [G277] was tested. Which IC50 did it give?
The IC50 was 65.5 nM.

With HSQGTFTSDYAKYLDARRAKEFIAWLVKGCG [G76] as the binder, how does the IC50 read?
Its IC50 is 59.1 nM.

With HSQGTFTSDYARYLDARRAKEFIAWLVRGRG [G82] as the binder, how does the IC50 read?
Its IC50 is 33.6 nM.

HSQGTFTSDYAKYLDARRAKEFIAWLVKGRK(Palmitoyl) [G88] was tested. Which IC50 did it give?
Its IC50 is 350 nM.

Which IC50 does the source give for HSQGTFTSDYAKYLDAAKAKEFIAWLVKGRG [G60] here?
The IC50 was 682 nM.

For HSQGTFTSDYARYLDARRAREFIKWLVRGRC(PEG43kD) [G4185], which IC50 is on record?
Its IC50 is 547 nM.

With HSQGTFTSDYARYLDARRAREFIAWLVKGRG [G84] as the binder, how does the IC50 read?
The IC50 was 11.7 nM.

Which IC50 does the source give for HSQGTFTSDYAKYLDARRAKEFIAWLVCGRG [G74] here?
Its IC50 is 21.7 nM.

— US20040002442A1 (Bayer, published 2004)
